Patent US12072338B2, “Pharmaceutical peptides for the treatment of inflammatory diseases” (PROTAGONISTS LTD., priority 2007, dated 2024)
Read-outs that look alike come from different tables or passages of the source.

Legend:
[1] = target: T1, SDF1-β (Homo sapiens, UniProt P48061); experiment: Micro-array analysis of chemokine binding peptides: SDF1-β
T1 construct: purchased 300-28b
In short: (§1)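 Chemokines were printed at 25 and 50 μg/ml (final, in print reagent) on protein microarray slides, blocked, then exposed to recombinant peptide-displaying phage at 10^7 pfu/μl for 1 h at RT. Bound phage was detected with mouse anti-M13 mAb and Cy3 goat anti-mouse IgG; values are relative Cy3 fluorescence.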

[2] = target: T2, MCP-4 (Homo sapiens, UniProt Q99616); experiment: Micro-array analysis of chemokine binding peptides: MCP-4; details: limit = start of the upper 75% of that peptide's response range
T2 construct: purchased 300-24
T2 sequence (Q99616 17-98): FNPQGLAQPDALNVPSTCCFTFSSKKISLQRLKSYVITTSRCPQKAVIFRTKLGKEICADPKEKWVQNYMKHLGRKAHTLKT
In short: as §1

[3] = target: T3, Fractalkine (Homo sapiens, UniProt P78423); experiment: Micro-array analysis of chemokine binding peptides: Fractalkine
T3 construct: purchased 300-31
T3 sequence (P78423 25-100 limits assumed): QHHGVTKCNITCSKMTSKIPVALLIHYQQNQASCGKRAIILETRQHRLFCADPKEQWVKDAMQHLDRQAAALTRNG
In short: as §1

[4] = target: T4, Eotaxin 3 (Homo sapiens, UniProt Q9Y258); experiment: Micro-array analysis of chemokine binding peptides: Eotaxin 3; details: for binding to Eotaxin 3 with relatively high affinity (Relative Fluorescence Units): limit = start of the upper 75% of that peptide's response range
T4 construct: purchased 300-48
T4 sequence (Q9Y258 24-94): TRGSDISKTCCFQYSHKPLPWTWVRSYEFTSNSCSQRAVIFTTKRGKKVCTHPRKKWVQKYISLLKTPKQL
In short: as §1

[5] = target: T5, MCP-2 (Homo sapiens, UniProt P80075); experiment: Micro-array analysis of chemokine binding peptides: MCP-2; details: limit = start of the upper 75% of that peptide's response range
T5 construct: purchased 300-15
T5 sequence (P80075 24-99): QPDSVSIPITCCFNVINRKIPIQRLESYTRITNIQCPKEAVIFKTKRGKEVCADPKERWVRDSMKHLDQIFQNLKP
In short: as §1

[6] = target: T6, I-TAC (Homo sapiens, UniProt O14625); experiment: Micro-array analysis of chemokine binding peptides: I-TAC; details: for binding to I-TAC with relatively high affinity (Relative Fluorescence Units): limit = start of the upper 75% of that peptide's response range
T6 construct: purchased 300-46
T6 sequence (O14625 22-94): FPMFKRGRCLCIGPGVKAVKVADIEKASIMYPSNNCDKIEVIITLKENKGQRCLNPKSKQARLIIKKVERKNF
In short: as §1

[7] = tested on: IL-8; experiment: Micro-array analysis of chemokine binding peptides: IL-8; details: for binding to IL-8 with relatively high affinity (Relative Fluorescence Units): limit = start of the upper 75% of that peptide's response range
Sequence of IL-8 (P10145 28-99 limits assumed): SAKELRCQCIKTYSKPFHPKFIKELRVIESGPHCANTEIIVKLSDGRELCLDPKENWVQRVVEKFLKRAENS
In short: as §1

[8] = target: T7, BCA-1 (Homo sapiens, UniProt O43927); experiment: Micro-array analysis of chemokine binding peptides: BCA-1
T7 construct: purchased 300-47
T7 sequence (O43927 23-109): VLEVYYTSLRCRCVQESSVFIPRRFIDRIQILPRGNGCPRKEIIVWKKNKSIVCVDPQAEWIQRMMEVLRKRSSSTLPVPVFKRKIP
In short: as §1

[9] = target: T8, TECK (Homo sapiens, UniProt O15444); experiment: Micro-array analysis of chemokine binding peptides: TECK
T8 construct: purchased 300-45
T8 sequence (O15444 24-150): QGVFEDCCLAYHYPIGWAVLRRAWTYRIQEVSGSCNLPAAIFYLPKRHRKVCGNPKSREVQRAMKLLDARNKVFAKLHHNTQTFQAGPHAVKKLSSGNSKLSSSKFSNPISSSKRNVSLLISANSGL
In short: as §1

[10] = target: T9, I-309 (Homo sapiens, UniProt P22362); experiment: Micro-array analysis of chemokine binding peptides: I-309; details: for binding to I-309 with relatively high affinity (Relative Fluorescence Units): limit = start of the upper 75% of that peptide's response range
T9 construct: purchased 300-37
T9 sequence (P22362 24-96): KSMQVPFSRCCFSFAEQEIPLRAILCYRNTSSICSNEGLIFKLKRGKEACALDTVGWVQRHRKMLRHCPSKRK
In short: as §1

[11] = limit = start of the upper 75% of that peptide's response range

T1 sequence (P48061 22-93): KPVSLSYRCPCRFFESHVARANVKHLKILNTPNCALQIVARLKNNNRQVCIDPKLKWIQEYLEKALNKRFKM

Sequence	binding to SDF1-β, stated in words [1]	binding to MCP-4 with relatively high affinity (Relative Fluorescence Units) [2]	binding to Fractalkine, stated in words [3]	binding to Eotaxin 3 with relatively high affinity (Relative Fluorescence Units) [4]	binding to MCP-2 with relatively high affinity (Relative Fluorescence Units) [5]	binding to I-TAC with relatively high affinity (Relative Fluorescence Units) [6]	binding to IL-8 with relatively high affinity (Relative Fluorescence Units) [7]	binding to BCA-1, stated in words [8]	binding to TECK, stated in words [9]	binding to I-309 with relatively high affinity (Relative Fluorescence Units) [10]	binding to Fractalkine, stated in words ([3]; listed as P8.8)	binding to Eotaxin 3, stated in words [4]	binding to I-TAC, stated in words [6]	binding to IL-8, stated in words [7]	binding to IL-8, stated in words ([7]; listed as P8.8)	binding to I-309, stated in words [10]	binding to SDF1-β with relatively high affinity (Relative Fluorescence Units) [1, 11]	binding to Fractalkine with relatively high affinity (Relative Fluorescence Units) [3, 11]	binding to BCA-1 with relatively high affinity (Relative Fluorescence Units) [8, 11]	binding to TECK with relatively high affinity (Relative Fluorescence Units) [9, 11]
DYDYGAPC [Ph-p30]	bound	> 15,000 RFU	bound	> 15,000 RFU	> 15,000 RFU	> 15,000 RFU	> 15,000 RFU	bound	bound	> 15,000 RFU	–	–	–	–	–	–	–	–	–	–
WVFGAAMCK [Ph-p8.8]	bound	> 15,000 RFU	bound	–	> 15,000 RFU	–	–	bound	bound	–	bound specifically and differentially	bound	bound	bound	bound specifically and differentially	bound	–	–	–	–
WVFGNAMCK [P8]	–	> 25,000 RFU	bound specifically and differentially	> 25,000 RFU	> 25,000 RFU	> 25,000 RFU	> 25,000 RFU	–	–	> 25,000 RFU	–	–	–	bound specifically and differentially	–	–	> 25,000 RFU	> 25,000 RFU	> 25,000 RFU	> 25,000 RFU
